Several values for one entry are separate records, joined by “and”; a condition that tells them apart may be missing. Equal values may be shown once.
T1: hMUC16.mmh (human)
T1 construct: also called hMUC16 with C-term myc-myc-6xHis tag; human MUC16 membrane proximal domain (P13810-P14451) having a myc-myc-his tag
T1 chain: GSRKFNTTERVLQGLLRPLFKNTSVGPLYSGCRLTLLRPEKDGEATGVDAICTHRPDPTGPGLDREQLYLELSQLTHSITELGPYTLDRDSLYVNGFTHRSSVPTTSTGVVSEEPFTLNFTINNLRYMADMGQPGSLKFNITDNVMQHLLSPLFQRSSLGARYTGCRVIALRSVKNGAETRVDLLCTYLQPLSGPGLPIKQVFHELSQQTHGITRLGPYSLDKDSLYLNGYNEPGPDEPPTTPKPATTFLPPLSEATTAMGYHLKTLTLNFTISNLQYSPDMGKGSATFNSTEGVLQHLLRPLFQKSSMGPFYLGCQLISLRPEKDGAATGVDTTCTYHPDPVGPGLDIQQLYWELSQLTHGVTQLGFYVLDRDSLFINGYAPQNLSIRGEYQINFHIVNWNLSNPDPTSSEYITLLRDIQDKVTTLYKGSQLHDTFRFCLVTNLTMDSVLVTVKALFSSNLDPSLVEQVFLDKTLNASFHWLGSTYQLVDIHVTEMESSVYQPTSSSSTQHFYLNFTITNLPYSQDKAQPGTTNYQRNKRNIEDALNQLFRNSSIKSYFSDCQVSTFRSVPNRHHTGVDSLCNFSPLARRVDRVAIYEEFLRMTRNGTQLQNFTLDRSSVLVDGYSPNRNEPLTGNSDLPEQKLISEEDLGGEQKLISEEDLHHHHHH


Tests used:
[1] = molecular target: T2, human CD28 on human T cells (human, UniProt P10747 19-152); experiment: cell-based or functional assay
[2] = molecular target: T2, human CD28 on human T cells; experiment: cell-based or functional assay; remark: listed apart in the source
[3] = molecular target: T3, cynomolgus CD28 on cynomolgus T cells (cynomolgus monkey, UniProt Q0PDN3 19-220); experiment: flow cytometry, cynomolgus CD8+ T cells
T3 construct: whole, on cells
Description: (§1) After incubation, the cells were washed twice with cold PBS containing 1% filtered FBS and a PE-conjugated or Alexa647-conjugated anti-human secondary antibody was added to the MUC16 expressing cells or Human/Cyno T cells, respectively, and incubated for an additional 30 minutes. Live/dead dye was added to Human and Cynomolgus T cells incubations. Wells containing no antibody or secondary only were used as a control.
(§2) After incubation with Human or Cynomolgus T cells, cells were washed, and stained with a cocktail of anti-CD2, ant-CD16, anti-CD4, and anti-CD8 antibodies in Brilliant Stain Buffer for an extra 20 min incubation at 4° C. After wash, cells were re-suspended in 200 μL cold PBS containing 1% filtered FBS, gated in a Live/CD2+/CD4+/CD16− or Live/CD2+/CD8+/CD16− gate and analyzed by Flow cytometry on a BD FACS LSR-Fortessa-X20.

[4] = molecular target: T2, human CD28 on human T cells; experiment: flow cytometry, human CD4+ T cells
Description: as §1, §2

[5] = molecular target: T3, cynomolgus CD28 on cynomolgus T cells; experiment: flow cytometry, cynomolgus CD4+ T cells
Description: as §1, §2

[6] = molecular target: T2, human CD28 on human T cells; experiment: flow cytometry, human CD8+ T cells
Description: as §1, §2

hCD28.mmh = molecular target: T4, hCD28.mmh (human); experiment: SPR (Biacore), 37 C, antibody captured by anti-human Fc, hCD28.mmh injected
T4 construct: also called hCD28 with C-term myc-myc-6xHis tag; human CD28 ecto domain (N19-P152) having a myc-myc-his tag
Description: (§3) The dissociation of bound hMUC16, hCD28, and mCD28 reagents was monitored for 10 minutes in HBS-ET running buffer. Association (kₐ) and dissociation (kd) rate constants were determined by fitting the real-time binding sensorgrams to a 1:1 binding model with mass transport limitation using Scrubber evaluation software version 2.0c. Binding dissociation equilibrium constants (KD) and dissociative half-lives (t½) were calculated from the kinetic rate constants as:

hMUC16.mmh = molecular target: T1, hMUC16.mmh; experiment: SPR (Biacore), 37 C, antibody captured by anti-human Fc, hMUC16.mmh injected
Description: as §3

| Binder | IL-2 release from primary human CD4+ T cells, EC50, OVCAR3 target cells, 5 nM REGN4018 [1] [nM] | IL-2 release from primary human CD4+ T cells, fold induction, OVCAR3 target cells, 5 nM REGN4018 [1] [fold] | IL-2 release from primary human CD4+ T cells, fold induction, PEO-1 target cells, 5 nM REGN4018 [1] [fold] | IL-2 release from primary human CD4+ T cells, fold induction, OVCAR3 target cells, 5 nM hIgG4 isotype control [2] [fold] | IL-2 release from primary human CD4+ T cells, fold induction, PEO-1 target cells, 5 nM hIgG4 isotype control [2] [fold] | EC50 [3] [nM] | EC50 [4] [nM] | EC50 [5] [nM] | EC50 [6] [nM] | Kd (hCD28.mmh) [nM] | T½ (hCD28.mmh) [min] | koff (hCD28.mmh) [s⁻¹] | kon (hCD28.mmh) [M⁻¹ s⁻¹] | IL-2 release from primary human CD4+ T cells, EC50, PEO-1 target cells, 5 nM REGN4018 [1] [nM] | Kd (hMUC16.mmh) | T½ (hMUC16.mmh) | koff (hMUC16.mmh) | kon (hMUC16.mmh) |
| --- | --- | --- | --- | --- | --- | --- | --- | --- | --- | --- | --- | --- | --- | --- | --- | --- | --- | --- |
| bs32897D (bispecific antibody, V domains shown, also called anti-MUC16xCD28) VH 1: EVQLVESGGGLVQPGGSLRLSCAASGFTFSRNNMHWVRQAPGKGLEYVSGISSNGGRTYYADSVKGRFTISRDNSKNTLYLQMGGLRAADMAVYFCTRDDELLSFDYWGQGTLVTVSS VH 2: QVQLVESGGGLVKPGGSLRLSCAASGFTFRDYSMSWIRQAPGKGLEWVSYVTFFNSAIYYADSVKGRFTISRDNAKNSLYLQMNSLRAEDTAVYYCAREREPIVGGFDYWGQGTLVTVSS VL: not shown | 0.607 | 5.63 | 5.22 | 1.06 | 1.12 | 3020 | 9160 | 5700 | 7580 |  |  |  |  |  |  |  |  |  |
| Parental 1 hCD28 (for bs32897D) (antibody, V domains shown) VH: EVQLVESGGGLVQPGGSLRLSCAASGFTFSRNNMHWVRQAPGKGLEYVSGISSNGGRTYYADSVKGRFTISRDNSKNTLYLQMGGLRAADMAVYFCTRDDELLSFDYWGQGTLVTVSS VL: not shown |  | 1.58 | 1.42 | 1.1 | 1.3 |  |  |  |  |  |  |  |  |  |  |  |  |  |
| bs24963D (bispecific antibody, IgG4, V domains shown, Two different heavy chains pair with a common light chain; also called REGN5668; anti-MUC16xCD28) VH 1: QVQLQESGPGLVKPSETLSLTCTVSGGSISSYYWSWIRQPPGKGLEWIGYIYYSGITHYNPSLKSRVTISVDTSKIQFSLKLSSVTAADTAVYYCARWGVRRDYYYYGMDVWGQGTTVTVSS VH 2: EVQLVESGGGLEQPGRSLRLSCTASGFAFGDHTMSWVRQAPGKGLEWVGFIRSRAYGGTTEYAASVKGRFTISRDDSKSIAYLQMDSLKTEDTAVYYCTSGGYDSSLHYYYYYHGMDVWGRGTTVTVSS VL: not shown | 0.401 | 5.32 | 10.9 | 1.33 | 1.12 | 122 | 261 | 203 | 253 | 165 | 2.1 | 0.00538 | 32700 | 0.996 | 0.933 nM and 0.912 nM | 53.1 min and 28 min | 0.000412 s⁻¹ and 0.000218 s⁻¹ | 441000 M⁻¹ s⁻¹ and 238000 M⁻¹ s⁻¹ |
| Parental 2 hCD28 (for bs24963D) (antibody, V domains shown) VH: QVQLQESGPGLVKPSETLSLTCTVSGGSISSYYWSWIRQPPGKGLEWIGYIYYSGITHYNPSLKSRVTISVDTSKIQFSLKLSSVTAADTAVYYCARWGVRRDYYYYGMDVWGQGTTVTVSS VL: not shown |  | 2.46 | 2.05 | 1.12 | 1.03 |  |  |  |  |  |  |  |  | 0.107 |  |  |  |  |

Source: patent US20200199233A1 (Regeneron, published 2020)
